Results: patent US20110262931A1 (published 2011)

Target: T1, mast cell carboxypeptidase purified from human skin (human, UniProt P15088 110-417)
T1 construct: also called human skin carboxypeptidase; carboxypeptidase purified from skin
T1 sequence (looked up): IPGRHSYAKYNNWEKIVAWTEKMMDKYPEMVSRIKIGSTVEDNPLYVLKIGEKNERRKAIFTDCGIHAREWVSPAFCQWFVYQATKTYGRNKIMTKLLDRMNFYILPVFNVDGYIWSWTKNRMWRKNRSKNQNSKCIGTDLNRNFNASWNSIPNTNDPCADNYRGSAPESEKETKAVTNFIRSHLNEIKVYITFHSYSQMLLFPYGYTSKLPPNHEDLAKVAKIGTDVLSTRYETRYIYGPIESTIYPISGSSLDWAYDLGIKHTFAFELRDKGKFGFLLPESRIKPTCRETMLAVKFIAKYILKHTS
Test: affinity chromatography on PCI-agarose
Description: Mast cell carboxypeptidase was purified from finely chopped extracts of human skin (obtained from macroscopically normal tissue at leg amputation) using a method adapted from that of Goldstein et al. (1989, ibid). […] After washing the column, carboxypeptidase was eluted with unconjugated PCI and dialysed to remove the inhibitor. The purity of the enzyme preparation was assessed by SDS-PAGE and silver staining (Pierce, Rockford, Ill., USA). Proteolytic activity was determined by monitoring the cleavage of […] hippuryl-Phe-Arg (Sigma) at 260 nm.

- binding result: binds
Binder: QQHADPICNKPCKTHDDCSGAWFCQACWNSARTCGPYVG (other, UniProt P01075 1-39, looked up, also called PCI) [potato tuber carboxypeptidase inhibitor]
